Reference: patent US20210246166A1 (Bayer, published 2021)
Bridge positions count the residues as written; N and C are the ends. Square brackets hold non-standard residues; d marks the D form. Ends that are not written are not given here. * marks the point of attachment. Pro(trans-4-F) = O=C(O)[C@@H]1C[C@@H](F)CN1; Oic = O=C(O)[C@@H]1C[C@@H]2CCCC[C@@H]2N1; Cyclopropylacetic acid = O=C(CC1CC1)*; Gly(cPent) = N[C@H](C(=O)O)C1CCCC1; Hyp = O=C(O)[C@@H]1C[C@@H](O)CN1; NMeI = CC[C@H](C)[C@H](NC)C(=O)O; aIle = CC[C@@H](C)[C@H](N)C(=O)O; tBuAla = CC(C)(C)C[C@H](N)C(=O)O; aThr = C[C@H](O)[C@H](N)C(=O)O; Chg = N[C@H](C(=O)O)C1CCCCC1; αMeP = C[C@@]1(C(=O)O)CCCN1; NMeC = CN[C@@H](CS)C(=O)O; Abu = CC[C@H](N)C(=O)O; Aib = CC(C)(N)C(=O)O; Sar = CNCC(=O)O

T1: recombinant rat MASP1 active protease (amino acids 302-704, C-terminal His Tag) (rat, UniProt Q8CHN8 302-704)
T1 sequence: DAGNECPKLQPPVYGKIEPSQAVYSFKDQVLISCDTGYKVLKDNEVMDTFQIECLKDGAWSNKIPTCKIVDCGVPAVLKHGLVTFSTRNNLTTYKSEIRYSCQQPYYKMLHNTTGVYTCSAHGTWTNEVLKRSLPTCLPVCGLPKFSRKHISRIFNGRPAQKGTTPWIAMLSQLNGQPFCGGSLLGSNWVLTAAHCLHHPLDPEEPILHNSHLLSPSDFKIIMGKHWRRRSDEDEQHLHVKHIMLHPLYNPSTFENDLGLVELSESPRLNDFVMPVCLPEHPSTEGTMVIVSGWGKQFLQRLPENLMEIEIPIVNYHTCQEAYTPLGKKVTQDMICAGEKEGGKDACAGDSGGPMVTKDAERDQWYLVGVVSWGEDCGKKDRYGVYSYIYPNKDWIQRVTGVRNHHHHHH

B1: Example 348: GIC+SRSLPPIC+I-(Hyp)-D-OH (peptide)
peptide: GICSRSLPPICI[Hyp]D-OH
modifications: disulfide 3-11; N-terminus assumed
SMILES: CC[C@H](C)[C@H](NC(=O)CN)C(=O)N[C@H]1CSSC[C@@H](C(=O)N[C@H](C(=O)N2C[C@H](O)C[C@H]2C(=O)N[C@@H](CC(=O)O)C(=O)O)[C@@H](C)CC)NC(=O)[C@H]([C@@H](C)CC)NC(=O)[C@@H]2CCCN2C(=O)[C@@H]2CCCN2C(=O)[C@H](CC(C)C)NC(=O)[C@H](CO)NC(=O)[C@H](CCCNC(=N)N)NC(=O)[C@H](CO)NC1=O
B2: Example 276: G-((N-Me)I)-C+SRSLPPIC+IPd-OH (peptide)
peptide: G[NMeI]CSRSLPPICIP[dD]-OH
modifications: disulfide 3-11; N-terminus assumed
SMILES: CC[C@H](C)[C@@H]1NC(=O)[C@@H]2CCCN2C(=O)[C@@H]2CCCN2C(=O)[C@H](CC(C)C)NC(=O)[C@H](CO)NC(=O)[C@H](CCCNC(=N)N)NC(=O)[C@H](CO)NC(=O)[C@@H](NC(=O)[C@H]([C@@H](C)CC)N(C)C(=O)CN)CSSC[C@@H](C(=O)N[C@H](C(=O)N2CCC[C@H]2C(=O)N[C@H](CC(=O)O)C(=O)O)[C@@H](C)CC)NC1=O
B3: Example 313: ((N-Me)G)-IC+SRSLPPIC+I-(Abu)-D-OH (peptide)
peptide: [Sar]ICSRSLPPICI[Abu]D-OH
modifications: disulfide 3-11; N-terminus assumed
SMILES: CC[C@H](NC(=O)[C@@H](NC(=O)[C@@H]1CSSC[C@H](NC(=O)[C@@H](NC(=O)CNC)[C@@H](C)CC)C(=O)N[C@@H](CO)C(=O)N[C@@H](CCCNC(=N)N)C(=O)N[C@@H](CO)C(=O)N[C@@H](CC(C)C)C(=O)N2CCC[C@H]2C(=O)N2CCC[C@H]2C(=O)N[C@@H]([C@@H](C)CC)C(=O)N1)[C@@H](C)CC)C(=O)N[C@@H](CC(=O)O)C(=O)O
B4: Example 275: G-((N-Me)I)-C+SRSLPPIC+IPD-OH (peptide)
peptide: G[NMeI]CSRSLPPICIPD-OH
modifications: disulfide 3-11; N-terminus assumed
SMILES: CC[C@H](C)[C@@H]1NC(=O)[C@@H]2CCCN2C(=O)[C@@H]2CCCN2C(=O)[C@H](CC(C)C)NC(=O)[C@H](CO)NC(=O)[C@H](CCCNC(=N)N)NC(=O)[C@H](CO)NC(=O)[C@@H](NC(=O)[C@H]([C@@H](C)CC)N(C)C(=O)CN)CSSC[C@@H](C(=O)N[C@H](C(=O)N2CCC[C@H]2C(=O)N[C@@H](CC(=O)O)C(=O)O)[C@@H](C)CC)NC1=O
B5: Example 261: G-((N-Me)I)-C+SRSLPPIC+IPD-NH2 (peptide)
peptide: G[NMeI]CSRSLPPICIPD-NH2
modifications: disulfide 3-11; N-terminus assumed
SMILES: CC[C@H](C)[C@@H]1NC(=O)[C@@H]2CCCN2C(=O)[C@@H]2CCCN2C(=O)[C@H](CC(C)C)NC(=O)[C@H](CO)NC(=O)[C@H](CCCNC(=N)N)NC(=O)[C@H](CO)NC(=O)[C@@H](NC(=O)[C@H]([C@@H](C)CC)N(C)C(=O)CN)CSSC[C@@H](C(=O)N[C@H](C(=O)N2CCC[C@H]2C(=O)N[C@@H](CC(=O)O)C(N)=O)[C@@H](C)CC)NC1=O
B6: Example 262: AIC+SRSLPP-(Cpg)-C+IPD-NH2 (peptide)
peptide: AICSRSLPP[Gly(cPent)]CIPD-NH2
modifications: disulfide 3-11; N-terminus assumed
SMILES: CC[C@H](C)[C@H](NC(=O)[C@H](C)N)C(=O)N[C@H]1CSSC[C@@H](C(=O)N[C@H](C(=O)N2CCC[C@H]2C(=O)N[C@@H](CC(=O)O)C(N)=O)[C@@H](C)CC)NC(=O)[C@H](C2CCCC2)NC(=O)[C@@H]2CCCN2C(=O)[C@@H]2CCCN2C(=O)[C@H](CC(C)C)NC(=O)[C@H](CO)NC(=O)[C@H](CCCNC(=N)N)NC(=O)[C@H](CO)NC1=O
B7: Example 287: ((N-Me)G)-IC+SRSLPPIC+I-((trans-4-Fluoro)P)-D-OH (peptide)
peptide: [Sar]ICSRSLPPICI[Pro(trans-4-F)]D-OH
modifications: disulfide 3-11; N-terminus assumed
SMILES: CC[C@H](C)[C@H](NC(=O)CNC)C(=O)N[C@H]1CSSC[C@@H](C(=O)N[C@H](C(=O)N2C[C@H](F)C[C@H]2C(=O)N[C@@H](CC(=O)O)C(=O)O)[C@@H](C)CC)NC(=O)[C@H]([C@@H](C)CC)NC(=O)[C@@H]2CCCN2C(=O)[C@@H]2CCCN2C(=O)[C@H](CC(C)C)NC(=O)[C@H](CO)NC(=O)[C@H](CCCNC(=N)N)NC(=O)[C@H](CO)NC1=O
B8: Example 274: (Cyclopropylacetic acid)-IC+SRS-((tBu)A)-PPI-((N-Me)C)+I-NH2 (peptide)
peptide: {Cyclopropylacetic acid}-ICSRS[tBuAla]PPI[NMeC]I-NH2
modifications: disulfide 2-10
SMILES: CC[C@H](C)[C@H](NC(=O)[C@@H]1CSSC[C@H](NC(=O)[C@@H](NC(=O)CC2CC2)[C@@H](C)CC)C(=O)N[C@@H](CO)C(=O)N[C@@H](CCCNC(=N)N)C(=O)N[C@@H](CO)C(=O)N[C@@H](CC(C)(C)C)C(=O)N2CCC[C@H]2C(=O)N2CCC[C@H]2C(=O)N[C@@H]([C@@H](C)CC)C(=O)N1C)C(N)=O
B9: Example 270: AIC+SRSLP-(Oic)-(Chg)-C+IPD-NH2 (peptide)
peptide: AICSRSLP[Oic][Chg]CIPD-NH2
modifications: disulfide 3-11; N-terminus assumed
SMILES: CC[C@H](C)[C@H](NC(=O)[C@H](C)N)C(=O)N[C@H]1CSSC[C@@H](C(=O)N[C@H](C(=O)N2CCC[C@H]2C(=O)N[C@@H](CC(=O)O)C(N)=O)[C@@H](C)CC)NC(=O)[C@H](C2CCCCC2)NC(=O)[C@@H]2C[C@@H]3CCCC[C@@H]3N2C(=O)[C@@H]2CCCN2C(=O)[C@H](CC(C)C)NC(=O)[C@H](CO)NC(=O)[C@H](CCCNC(=N)N)NC(=O)[C@H](CO)NC1=O
B10: Example 286: GIC+SRSLPPIC+I-(Aib)-D-OH (peptide)
peptide: GICSRSLPPICI[Aib]D-OH
modifications: disulfide 3-11; N-terminus assumed
SMILES: CC[C@H](C)[C@H](NC(=O)CN)C(=O)N[C@H]1CSSC[C@@H](C(=O)N[C@H](C(=O)NC(C)(C)C(=O)N[C@@H](CC(=O)O)C(=O)O)[C@@H](C)CC)NC(=O)[C@H]([C@@H](C)CC)NC(=O)[C@@H]2CCCN2C(=O)[C@@H]2CCCN2C(=O)[C@H](CC(C)C)NC(=O)[C@H](CO)NC(=O)[C@H](CCCNC(=N)N)NC(=O)[C@H](CO)NC1=O
B11: Example 289: ((N-Me)G)-IC+SRSLPP-IC+I-((2-Me)P)-D-OH (peptide)
peptide: [Sar]ICSRSLPPICI[αMeP]D-OH
modifications: disulfide 3-11; N-terminus assumed
SMILES: CC[C@H](C)[C@H](NC(=O)CNC)C(=O)N[C@H]1CSSC[C@@H](C(=O)N[C@H](C(=O)N2CCC[C@@]2(C)C(=O)N[C@@H](CC(=O)O)C(=O)O)[C@@H](C)CC)NC(=O)[C@H]([C@@H](C)CC)NC(=O)[C@@H]2CCCN2C(=O)[C@@H]2CCCN2C(=O)[C@H](CC(C)C)NC(=O)[C@H](CO)NC(=O)[C@H](CCCNC(=N)N)NC(=O)[C@H](CO)NC1=O
B12: Example 278: AIC+SR-(allo-T)-LPPIC+IPD-NH2 (peptide)
peptide: AICSR[aThr]LPPICIPD-NH2
modifications: disulfide 3-11; N-terminus assumed
SMILES: CC[C@H](C)[C@H](NC(=O)[C@H](C)N)C(=O)N[C@H]1CSSC[C@@H](C(=O)N[C@H](C(=O)N2CCC[C@H]2C(=O)N[C@@H](CC(=O)O)C(N)=O)[C@@H](C)CC)NC(=O)[C@H]([C@@H](C)CC)NC(=O)[C@@H]2CCCN2C(=O)[C@@H]2CCCN2C(=O)[C@H](CC(C)C)NC(=O)[C@H]([C@H](C)O)NC(=O)[C@H](CCCNC(=N)N)NC(=O)[C@H](CO)NC1=O
B13: Example 282: ((N-Me)G)-IC+SRSLPP-(Chg)-C+IPD-NH2 (peptide)
peptide: [Sar]ICSRSLPP[Chg]CIPD-NH2
modifications: disulfide 3-11; N-terminus assumed
SMILES: CC[C@H](C)[C@H](NC(=O)CNC)C(=O)N[C@H]1CSSC[C@@H](C(=O)N[C@H](C(=O)N2CCC[C@H]2C(=O)N[C@@H](CC(=O)O)C(N)=O)[C@@H](C)CC)NC(=O)[C@H](C2CCCCC2)NC(=O)[C@@H]2CCCN2C(=O)[C@@H]2CCCN2C(=O)[C@H](CC(C)C)NC(=O)[C@H](CO)NC(=O)[C@H](CCCNC(=N)N)NC(=O)[C@H](CO)NC1=O
B14: Example 268: AIC+SRS-((tBu)A)-P-(Oic)-I-((N-Me)C)+IPD-NH2 (peptide)
peptide: AICSRS[tBuAla]P[Oic]I[NMeC]IPD-NH2
modifications: disulfide 3-11; N-terminus assumed
SMILES: CC[C@H](C)[C@H](NC(=O)[C@H](C)N)C(=O)N[C@H]1CSSC[C@@H](C(=O)N[C@H](C(=O)N2CCC[C@H]2C(=O)N[C@@H](CC(=O)O)C(N)=O)[C@@H](C)CC)N(C)C(=O)[C@H]([C@@H](C)CC)NC(=O)[C@@H]2C[C@@H]3CCCC[C@@H]3N2C(=O)[C@@H]2CCCN2C(=O)[C@H](CC(C)(C)C)NC(=O)[C@H](CO)NC(=O)[C@H](CCCNC(=N)N)NC(=O)[C@H](CO)NC1=O
B15: Example 277: ((N-Me)G)-IC+SRSLPPIC+(allo-I)-PD-NH2 (peptide)
peptide: [Sar]ICSRSLPPIC[aIle]PD-NH2
modifications: disulfide 3-11; N-terminus assumed
SMILES: CC[C@@H](C)[C@H](NC(=O)[C@@H]1CSSC[C@H](NC(=O)[C@@H](NC(=O)CNC)[C@@H](C)CC)C(=O)N[C@@H](CO)C(=O)N[C@@H](CCCNC(=N)N)C(=O)N[C@@H](CO)C(=O)N[C@@H](CC(C)C)C(=O)N2CCC[C@H]2C(=O)N2CCC[C@H]2C(=O)N[C@@H]([C@@H](C)CC)C(=O)N1)C(=O)N1CCC[C@H]1C(=O)N[C@@H](CC(=O)O)C(N)=O

biological target: T1, recombinant rat MASP1 active protease …; assay: cell-based or functional assay

rat MASP1 IC50 [nM] | Binder
350 | B1
200 | B2
220 | B3
150 | B4
300 | B5
490 | B6
250 | B7
89 | B8
170 | B9
230 | B10
180 | B11
83 | B12
470 | B13
100 | B14
190 | B15
